What was measured:
[1] = target: murine IL-21R (murine, UniProt Q9JHX3 20-529); experiment: BLI
[2] = target: human IL-21 receptor (human, UniProt Q9HBE5 20-538); experiment: BLI
[3] = target: T1, murine γc (murine, UniProt P34902 23-369); experiment: BLI; in presence of mIL-21R (mIL-21R/mγc)
T1 chain: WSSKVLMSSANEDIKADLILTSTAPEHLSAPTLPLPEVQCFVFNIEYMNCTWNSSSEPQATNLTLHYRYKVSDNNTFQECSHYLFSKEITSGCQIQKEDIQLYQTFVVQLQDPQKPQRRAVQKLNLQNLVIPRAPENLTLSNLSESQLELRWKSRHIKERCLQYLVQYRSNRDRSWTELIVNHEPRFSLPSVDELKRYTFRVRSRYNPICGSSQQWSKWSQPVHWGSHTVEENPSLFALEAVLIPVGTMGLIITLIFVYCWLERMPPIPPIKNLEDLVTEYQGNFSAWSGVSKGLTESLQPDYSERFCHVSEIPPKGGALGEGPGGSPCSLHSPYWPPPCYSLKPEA

[4] = target: T2, human common cytokine receptor γ chain (human, UniProt P31785 23-369); experiment: BLI; in presence of hIL-21R (hIL-21R/hγc)
T2 chain: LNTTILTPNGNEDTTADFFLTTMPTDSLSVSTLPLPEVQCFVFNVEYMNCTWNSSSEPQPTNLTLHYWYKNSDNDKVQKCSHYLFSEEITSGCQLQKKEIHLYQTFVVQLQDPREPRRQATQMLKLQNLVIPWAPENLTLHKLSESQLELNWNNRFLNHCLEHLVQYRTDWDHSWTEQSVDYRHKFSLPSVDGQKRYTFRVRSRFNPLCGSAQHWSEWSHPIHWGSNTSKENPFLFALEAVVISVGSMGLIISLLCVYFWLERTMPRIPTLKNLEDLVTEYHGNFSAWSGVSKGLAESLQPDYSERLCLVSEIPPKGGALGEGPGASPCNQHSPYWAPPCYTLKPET

Chain of human IL-21 receptor (Q9HBE5 20-538): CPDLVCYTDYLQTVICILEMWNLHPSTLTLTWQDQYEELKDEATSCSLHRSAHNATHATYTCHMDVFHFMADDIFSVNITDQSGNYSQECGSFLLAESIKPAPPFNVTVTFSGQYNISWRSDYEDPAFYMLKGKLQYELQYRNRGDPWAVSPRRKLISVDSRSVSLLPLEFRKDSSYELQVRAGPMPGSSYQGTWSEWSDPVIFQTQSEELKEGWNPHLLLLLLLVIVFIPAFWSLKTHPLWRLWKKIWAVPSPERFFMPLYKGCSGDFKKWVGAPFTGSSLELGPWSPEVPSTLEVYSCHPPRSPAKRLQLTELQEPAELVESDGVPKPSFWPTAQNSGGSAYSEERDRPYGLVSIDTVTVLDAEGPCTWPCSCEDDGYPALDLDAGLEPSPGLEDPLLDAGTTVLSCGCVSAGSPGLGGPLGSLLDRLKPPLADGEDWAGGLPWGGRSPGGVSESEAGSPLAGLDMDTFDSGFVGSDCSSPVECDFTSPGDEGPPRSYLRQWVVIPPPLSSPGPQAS

Kd [1]: 5.17 nM | Kd [2]: 0.0737 nM | Kd [3]: 93.3 nM | Kd [4]: 85.5 nM
B1: 21h10 (designed binder)
chain: DEEELKEIMKEAAECARKELEKLDNTDEDTRWLKITLKKIVRMANRIVRMREREADSKRFEIRMRGLIDIADHVKREFASEDLKEVMERAKSAAQKALGRWL

Reference: paper PMC12768534 (2025)
